Data reported in patent US11648295B2, “Methods of treating diseases resulting from a maladapted stress response” (Cortene Inc., priority 2016, dated 2023).
No end group written: not given here.

Assays:
[1] = test system: stable congestive heart failure patients; conditions: escalating i.v. infusion over 3 hours; cited from earlier work
CRFR2 [2] = molecular target: T1, CRFR2 (Homo sapiens, UniProt Q13324); assay: EC50, nmol (% of Emax) | CRFR2
T1 sequence (Q13324 whole entry, looked up): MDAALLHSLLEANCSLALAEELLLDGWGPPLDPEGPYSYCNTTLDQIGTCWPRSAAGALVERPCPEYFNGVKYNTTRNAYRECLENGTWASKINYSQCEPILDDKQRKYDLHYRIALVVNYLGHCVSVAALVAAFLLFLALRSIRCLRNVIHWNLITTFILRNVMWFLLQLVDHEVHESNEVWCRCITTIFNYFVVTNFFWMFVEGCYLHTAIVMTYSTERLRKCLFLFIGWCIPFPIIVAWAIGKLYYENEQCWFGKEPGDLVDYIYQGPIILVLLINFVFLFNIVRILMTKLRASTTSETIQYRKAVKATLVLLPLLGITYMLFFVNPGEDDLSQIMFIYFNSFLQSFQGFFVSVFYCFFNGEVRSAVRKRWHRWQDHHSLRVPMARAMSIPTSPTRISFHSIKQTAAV
Text: (§1) Table printed on a drawing sheet, FIGURE 10
(§2) Title: Pharmacokinetic Parameters
Head of the field: EC50, nmol (% of Emax) | CRFR2
(§3) Footnotes: FIGURE 10: Effect of maximum or steady state plasma concentrations (Cmax or Css) of various CRFR2 agonists (CT38, SCP or Ucn2), dosed by subcutaneous bolus (triangles) or intravenous infusion (circles), on the maximum heart rate (HRmax) in healthy subjects (solid lines) or stable congestive heart failure patients (dashed lines). The table provides comparative pharmacokinetic parameters for the CRFR2 agonists.
(§4) That is, for strongly potent CRFR2 agonists and relative intermediate plasma concentrations, the loss of the ability to induce a heart rate increase via continuous dosing, was driven by the duration of dosing, and appeared to occur with different selective CRFR2 agonists (e.g., Ucn2, stresscopin), irrespective of the condition of the human subject.
(§5) First copying reader's note: Each EC50 cell holds the EC50 in nmol with the % of Emax in brackets after it.
Where the first naming reader finds the target: head: EC50, nmol (% of Emax) | CRFR2

CRFR1 [3] = molecular target: CRFR1 (Homo sapiens, UniProt P34998); assay: EC50, nmol (% of Emax) | CRFR1
Text: as §1, §2
Head of the field: EC50, nmol (% of Emax) | CRFR1
as §3, §4, §5
Where the first naming reader finds the target: head: EC50, nmol (% of Emax) | CRFR1

CRFR2 [4] = molecular target: T1, CRFR2; assay: in vitro potency / binding potential for CRFR2 (table of FIG. 10); type: biochemical
CRFR1 [5] = molecular target: T2, CRFR1 (Homo sapiens, UniProt P34998); assay: in vitro binding potential for CRFR1 (table of FIG. 10); type: biochemical
T2 sequence (P34998 24-415): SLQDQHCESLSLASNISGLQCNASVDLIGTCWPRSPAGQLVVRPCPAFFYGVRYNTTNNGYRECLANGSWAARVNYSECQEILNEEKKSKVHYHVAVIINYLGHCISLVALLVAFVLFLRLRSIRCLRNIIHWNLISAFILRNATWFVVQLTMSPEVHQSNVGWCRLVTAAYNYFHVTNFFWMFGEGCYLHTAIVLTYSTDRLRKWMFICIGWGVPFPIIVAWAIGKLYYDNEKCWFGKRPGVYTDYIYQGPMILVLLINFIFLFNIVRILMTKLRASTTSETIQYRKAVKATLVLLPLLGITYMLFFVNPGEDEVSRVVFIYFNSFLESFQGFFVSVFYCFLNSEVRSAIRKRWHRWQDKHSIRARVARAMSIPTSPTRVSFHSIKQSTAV

stresscopin (FTLSLDVPTNIMNLLFNIAKAKNLRAQAAANAHLMAQI; ends and bridges not checked; UniProt Q969E3 120-157, looked up)
pattern of effect on heart rate versus Ucn2 [1]: very similar

Ucn3: endogenous CRFR2-selective agonist peptide, used as a proxy for SCP (FTLSLDVPTNIMNLLFNIAKAKNLRAQAAANAHLMAQI) [listing 1 of 2 here]
EC50, nmol (% of Emax) | CRFR2 (CRFR2 [2]): > 100 (60) nmol (% of Emax) | EC50, nmol (% of Emax) | CRFR1 (CRFR1 [3]): > 1000 (10) nmol (% of Emax)

Ucn3: endogenous CRFR2-selective agonist peptide, used as a proxy for SCP (FTLSLDVPTNIMNLLFNIAKAKNLRAQAAANAHLMAQI) [listing 2 of 2 here]
in vitro binding potential for CRFR2 (CRFR2 [4]): strong binding potential for CRFR2 (maximal, at low concentrations) | in vitro binding potential for CRFR1 (CRFR1 [5]): weak binding potential for CRFR1 (minimal, at moderate concentrations)
